Ends that are not written are not given here. * marks the point of attachment. Biotin = O=C1N[C@H]2[C@H](CS[C@H]2CCCCC(=O)*)N1
T1: GST-LIM protein PDZ domain fusion protein (Human, UniProt Q96HC4 2-85)
T1 construct: also called Human LIM protein; not shown: glutathione S-transferase encoded by vector pGEX-3X (Pharmacia)
T1 sequence: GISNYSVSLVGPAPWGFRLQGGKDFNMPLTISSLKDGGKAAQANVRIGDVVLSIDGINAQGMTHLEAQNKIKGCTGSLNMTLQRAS

T2: GST-PDZK1 fusion protein (PDZ domains 2-4) (Homo sapiens, UniProt Q5T2W1 134-457)
T2 construct: not shown: glutathione S-transferase encoded by vector pGEX-3X (Pharmacia)
T2 sequence: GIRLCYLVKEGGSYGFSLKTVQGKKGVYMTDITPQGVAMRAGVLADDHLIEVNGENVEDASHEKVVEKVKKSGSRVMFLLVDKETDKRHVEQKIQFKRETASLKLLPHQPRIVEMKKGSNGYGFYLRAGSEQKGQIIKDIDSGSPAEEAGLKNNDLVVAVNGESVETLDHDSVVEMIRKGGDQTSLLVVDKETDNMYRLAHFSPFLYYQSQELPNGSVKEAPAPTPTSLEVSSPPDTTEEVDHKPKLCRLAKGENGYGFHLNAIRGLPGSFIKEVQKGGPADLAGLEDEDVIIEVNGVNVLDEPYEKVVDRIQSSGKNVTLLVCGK

T3: GST-DLG5 (p-dlg) PDZ domain fusion protein (Human, UniProt Q8TDM6 1343-1583)
T3 construct: also called Human discs large protein p-dlg; not shown: glutathione S-transferase encoded by vector pGEX-3X (Pharmacia)
T3 sequence: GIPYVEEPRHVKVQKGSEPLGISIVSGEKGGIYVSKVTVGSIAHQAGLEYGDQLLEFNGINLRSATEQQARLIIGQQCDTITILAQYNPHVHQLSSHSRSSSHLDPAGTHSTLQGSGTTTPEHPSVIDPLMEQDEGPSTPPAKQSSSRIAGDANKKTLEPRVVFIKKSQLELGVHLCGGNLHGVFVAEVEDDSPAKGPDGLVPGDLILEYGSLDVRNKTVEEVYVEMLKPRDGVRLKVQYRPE

T4: GST-TAX-IP40 PDZ domain fusion protein (human, UniProt Q6B4M5 150-252 (rat entry))
T4 construct: also called TAX40; not shown: glutathione S-transferase encoded by vector pGEX-3X (Pharmacia)
T4 sequence: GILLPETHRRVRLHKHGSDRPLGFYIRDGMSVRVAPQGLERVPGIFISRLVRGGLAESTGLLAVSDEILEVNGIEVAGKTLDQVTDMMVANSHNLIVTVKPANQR

T5: GST-DVL1 PDZ domain fusion protein (human, UniProt O14640 247-339)
T5 construct: also called human dishevelled segment polarity protein homolog; not shown: glutathione S-transferase encoded by vector pGEX-3X (Pharmacia)
T5 sequence: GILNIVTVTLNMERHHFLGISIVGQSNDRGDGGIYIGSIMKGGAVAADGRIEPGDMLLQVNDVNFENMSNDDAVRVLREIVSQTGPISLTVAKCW

T6: GST-KIAA0303 PDZ domain fusion protein (Homo sapiens (Human), UniProt O15021 1138-1228)
T6 construct: also called K303; not shown: glutathione S-transferase encoded by vector pGEX-3X (Pharmacia)
T6 sequence: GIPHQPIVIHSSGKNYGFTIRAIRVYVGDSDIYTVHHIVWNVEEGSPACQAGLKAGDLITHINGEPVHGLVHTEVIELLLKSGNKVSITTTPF

T7: TAX-IP2L PDZ-GST fusion protein (Homo sapiens (Human), UniProt Q8TF64 107-197)
T7 construct: Order of GST and PDZ part and limits not seen in the excerpts
T7 sequence: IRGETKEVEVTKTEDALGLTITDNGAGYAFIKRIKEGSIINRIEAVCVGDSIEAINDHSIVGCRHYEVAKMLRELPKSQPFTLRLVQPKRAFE

T8: TAX-IP33 PDZ-GST fusion protein (Homo sapiens (Human), UniProt O14910 103-193)
T8 construct: Order of GST and PDZ part and limits not seen in the excerpts
T8 sequence: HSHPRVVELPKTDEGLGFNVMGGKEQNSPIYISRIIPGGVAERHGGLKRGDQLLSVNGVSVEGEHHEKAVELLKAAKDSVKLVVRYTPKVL

T9: MINT3 PDZ-GST fusion protein
T9 construct: Order of GST and PDZ part and limits not seen in the excerpts
T9 chain: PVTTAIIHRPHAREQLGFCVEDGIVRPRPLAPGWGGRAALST

T10: K559 PDZ-GST fusion protein (Homo sapiens (Human), UniProt Q9Y6V0 4489-4593)
T10 construct: Order of GST and PDZ part and limits not seen in the excerpts
T10 sequence: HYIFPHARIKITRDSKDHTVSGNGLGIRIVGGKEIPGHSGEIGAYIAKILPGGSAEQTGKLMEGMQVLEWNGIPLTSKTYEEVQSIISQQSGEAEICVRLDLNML

T11: GEF PDZ-GST fusion protein (Homo sapiens (Human), UniProt Q8TEU7 293-400)
T11 construct: The label GEF is not explained in the excerpts
T11 sequence: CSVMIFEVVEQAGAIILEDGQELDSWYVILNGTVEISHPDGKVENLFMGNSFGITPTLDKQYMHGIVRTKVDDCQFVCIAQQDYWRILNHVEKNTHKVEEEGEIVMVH


What follows are binders tested against T1, GST-LIM protein PDZ domain fusion … (assay: A/G assays).

binding result | Binder
no binding | Biotin-PSWRRSSLSESENATSLTTF (also called CXCR5) [BLR-1 C-terminal peptide AA45L, biotinylated]
no binding | Biotin-KDSRPSFVGSSSGHTSTTL (also called CDW128E (IL8RB)) [CDW128B (IL8RB) C-terminal peptide AA29.2L, biotinylated]
no binding | Biotin-SVFSIPTLWSPWPPSSSSQL (also called CD3η; CD3-eta) [CD3n C-terminal peptide AA4L, biotinylated]

Each binder was assayed against T2, GST-PDZK1 fusion protein (PDZ domains …) (assay: A/G assays).

binding result | Binder
no binding | Biotin-KDSRPSFVGSSSGHTSTTL (also called CDW128E (IL8RB)) [CDW128B (IL8RB) C-terminal peptide AA29.2L, biotinylated]
no binding | Biotin-SVFSIPTLWSPWPPSSSSQL (also called CD3η; CD3-eta) [CD3n C-terminal peptide AA4L, biotinylated]

The binders below were run against T3, GST-DLG5 (p-dlg) PDZ domain fusion … (assay: A/G assays).

binding result | Binder
no binding | Biotin-PSWRRSSLSESENATSLTTF (also called CXCR5) [BLR-1 C-terminal peptide AA45L, biotinylated]
no binding | Biotin-KDSRPSFVGSSSGHTSTTL (also called CDW128E (IL8RB)) [CDW128B (IL8RB) C-terminal peptide AA29.2L, biotinylated]
no binding | Biotin-SVFSIPTLWSPWPPSSSSQL (also called CD3η; CD3-eta) [CD3n C-terminal peptide AA4L, biotinylated]

Each binder was assayed against T4, GST-TAX-IP40 PDZ domain fusion protein (assay: A/G assays).

binding result | Binder
no binding | Biotin-PSWRRSSLSESENATSLTTF (also called CXCR5) [BLR-1 C-terminal peptide AA45L, biotinylated]
no binding | Biotin-KDSRPSFVGSSSGHTSTTL (also called CDW128E (IL8RB)) [CDW128B (IL8RB) C-terminal peptide AA29.2L, biotinylated]
no binding | Biotin-SVFSIPTLWSPWPPSSSSQL (also called CD3η; CD3-eta) [CD3n C-terminal peptide AA4L, biotinylated]

The binders below were run against T12, GST-TIAM1 PDZ domain fusion protein (Homo sapiens (Human), UniProt Q13009 845-931) (assay: A/G assays).
T12 construct: also called TLAM1; T-lymphoma invasion and metastasis inducing protein 1; not shown: glutathione S-transferase encoded by vector pGEX-3X (Pharmacia)
T12 sequence (Q13009 other isoform, or with tags, fused parts or gaps): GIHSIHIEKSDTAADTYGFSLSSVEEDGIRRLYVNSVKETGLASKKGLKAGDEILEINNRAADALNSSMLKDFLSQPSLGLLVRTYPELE

binding result | Binder
no binding | Biotin-PSWRRSSLSESENATSLTTF (also called CXCR5) [BLR-1 C-terminal peptide AA45L, biotinylated]
no binding | Biotin-KDSRPSFVGSSSGHTSTTL (also called CDW128E (IL8RB)) [CDW128B (IL8RB) C-terminal peptide AA29.2L, biotinylated]
no binding | Biotin-SVFSIPTLWSPWPPSSSSQL (also called CD3η; CD3-eta) [CD3n C-terminal peptide AA4L, biotinylated]

These binders were tested against T5, GST-DVL1 PDZ domain fusion protein (assay: A/G assays).

binding result | Binder
no binding | Biotin-PSWRRSSLSESENATSLTTF (also called CXCR5) [BLR-1 C-terminal peptide AA45L, biotinylated]
no binding | Biotin-KDSRPSFVGSSSGHTSTTL (also called CDW128E (IL8RB)) [CDW128B (IL8RB) C-terminal peptide AA29.2L, biotinylated]
no binding | Biotin-SVFSIPTLWSPWPPSSSSQL (also called CD3η; CD3-eta) [CD3n C-terminal peptide AA4L, biotinylated]

These binders were tested against T6, GST-KIAA0303 PDZ domain fusion protein (assay: A/G assays).

binding result | Binder
no binding | Biotin-PSWRRSSLSESENATSLTTF (also called CXCR5) [BLR-1 C-terminal peptide AA45L, biotinylated]
no binding | Biotin-KDSRPSFVGSSSGHTSTTL (also called CDW128E (IL8RB)) [CDW128B (IL8RB) C-terminal peptide AA29.2L, biotinylated]
no binding | Biotin-SVFSIPTLWSPWPPSSSSQL (also called CD3η; CD3-eta) [CD3n C-terminal peptide AA4L, biotinylated]

Each binder was assayed against T7, TAX-IP2L PDZ-GST fusion protein (assay: A/G assays).

binding result | Binder
no binding | Biotin-PSWRRSSLSESENATSLTTF (also called CXCR5) [BLR-1 C-terminal peptide AA45L, biotinylated]
no binding | Biotin-KDSRPSFVGSSSGHTSTTL (also called CDW128E (IL8RB)) [CDW128B (IL8RB) C-terminal peptide AA29.2L, biotinylated]
no binding | Biotin-SVFSIPTLWSPWPPSSSSQL (also called CD3η; CD3-eta) [CD3n C-terminal peptide AA4L, biotinylated]

What follows are binders tested against T8, TAX-IP33 PDZ-GST fusion protein (assay: A/G assays).

binding result | Binder
no binding | Biotin-PSWRRSSLSESENATSLTTF (also called CXCR5) [BLR-1 C-terminal peptide AA45L, biotinylated]
no binding | Biotin-KDSRPSFVGSSSGHTSTTL (also called CDW128E (IL8RB)) [CDW128B (IL8RB) C-terminal peptide AA29.2L, biotinylated]
no binding | Biotin-SVFSIPTLWSPWPPSSSSQL (also called CD3η; CD3-eta) [CD3n C-terminal peptide AA4L, biotinylated]

Target: T9, MINT3 PDZ-GST fusion protein
Assay: A/G assays

binding result | Binder
no binding | Biotin-PSWRRSSLSESENATSLTTF (also called CXCR5) [BLR-1 C-terminal peptide AA45L, biotinylated]
no binding | Biotin-KDSRPSFVGSSSGHTSTTL (also called CDW128E (IL8RB)) [CDW128B (IL8RB) C-terminal peptide AA29.2L, biotinylated]
no binding | Biotin-SVFSIPTLWSPWPPSSSSQL (also called CD3η; CD3-eta) [CD3n C-terminal peptide AA4L, biotinylated]

What follows are binders tested against T10, K559 PDZ-GST fusion protein (assay: A/G assays).

binding result | Binder
no binding | Biotin-PSWRRSSLSESENATSLTTF (also called CXCR5) [BLR-1 C-terminal peptide AA45L, biotinylated]
no binding | Biotin-KDSRPSFVGSSSGHTSTTL (also called CDW128E (IL8RB)) [CDW128B (IL8RB) C-terminal peptide AA29.2L, biotinylated]
no binding | Biotin-SVFSIPTLWSPWPPSSSSQL (also called CD3η; CD3-eta) [CD3n C-terminal peptide AA4L, biotinylated]

What follows are binders tested against T13, NSP PDZ-GST fusion protein (Homo sapiens (Human), UniProt Q92743 370-466) (assay: A/G assays).
T13 construct: The label NSP is not explained in the excerpts
T13 sequence (Q92743 other isoform, or with tags, fused parts or gaps limits assumed): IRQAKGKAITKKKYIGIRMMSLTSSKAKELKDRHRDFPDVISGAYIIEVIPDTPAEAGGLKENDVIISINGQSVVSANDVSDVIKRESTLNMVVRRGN

binding result | Binder
no binding | Biotin-PSWRRSSLSESENATSLTTF (also called CXCR5) [BLR-1 C-terminal peptide AA45L, biotinylated]
no binding | Biotin-KDSRPSFVGSSSGHTSTTL (also called CDW128E (IL8RB)) [CDW128B (IL8RB) C-terminal peptide AA29.2L, biotinylated]
no binding | Biotin-SVFSIPTLWSPWPPSSSSQL (also called CD3η; CD3-eta) [CD3n C-terminal peptide AA4L, biotinylated]

These binders were tested against T11, GEF PDZ-GST fusion protein (assay: A/G assays).

binding result | Binder
no binding | Biotin-PSWRRSSLSESENATSLTTF (also called CXCR5) [BLR-1 C-terminal peptide AA45L, biotinylated]
no binding | Biotin-KDSRPSFVGSSSGHTSTTL (also called CDW128E (IL8RB)) [CDW128B (IL8RB) C-terminal peptide AA29.2L, biotinylated]
no binding | Biotin-SVFSIPTLWSPWPPSSSSQL (also called CD3η; CD3-eta) [CD3n C-terminal peptide AA4L, biotinylated]

What follows are binders tested against T14, NOS1 PDZ-GST fusion protein (Homo sapiens (Human), UniProt P29475 11-100) (assay: A/G assays).
T14 construct: Order of GST and PDZ part and limits not seen in the excerpts
T14 sequence (P29475 11-100 limits assumed): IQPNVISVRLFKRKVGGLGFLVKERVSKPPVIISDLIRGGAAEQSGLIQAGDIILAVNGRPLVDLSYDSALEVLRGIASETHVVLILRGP

binding result | Binder
no binding | Biotin-PSWRRSSLSESENATSLTTF (also called CXCR5) [BLR-1 C-terminal peptide AA45L, biotinylated]
no binding | Biotin-KDSRPSFVGSSSGHTSTTL (also called CDW128E (IL8RB)) [CDW128B (IL8RB) C-terminal peptide AA29.2L, biotinylated]
no binding | Biotin-SVFSIPTLWSPWPPSSSSQL (also called CD3η; CD3-eta) [CD3n C-terminal peptide AA4L, biotinylated]

From patent US20050037969A1 (ARBOR VITA, published 2005)
